Data taken from paper PMC2908990.

Target: CH1 domain of the murine IgG1 heavy chain, oxidized (internal disulfide bridge formed) (murine) [IgG part: P01868]
Assay: other fluorescence titration

## CL domain of the murine MAK33 κ light chain (from UniProt P01837 1-107) (domain or fragment)
  Kd: 6.2 µM
